Patent publication US20250277023A1 (published 2025)

T1: TIGIT (on CHO-TIGIT cells) (UniProt Q495A1 22-244)
T1 chain: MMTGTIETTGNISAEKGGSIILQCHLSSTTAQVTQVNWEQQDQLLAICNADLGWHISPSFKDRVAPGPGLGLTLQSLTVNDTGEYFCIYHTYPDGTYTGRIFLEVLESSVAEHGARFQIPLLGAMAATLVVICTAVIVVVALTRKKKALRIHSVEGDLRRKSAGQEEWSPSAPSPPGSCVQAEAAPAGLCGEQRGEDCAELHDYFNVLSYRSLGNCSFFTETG


What was measured:
[1] = target: T2, PD-L1 (on CHO-PD-L1 cells) (UniProt Q9NZQ7 19-290); test: FACS binding; Fig. 22
[2] = target: T1, TIGIT (on CHO-TIGIT cells); test: FACS binding; Fig. 17
[3] = target: T2, PD-L1 (on CHO-PD-L1 cells); test: FACS binding; Fig. 24
[4] = target: T2, PD-L1 (on CHO-PD-L1 cells); test: FACS binding; Fig. 25
[5] = target: T2, PD-L1 (on CHO-PD-L1 cells); test: FACS binding; Fig. 21

T2 sequence (Q9NZQ7 19-290): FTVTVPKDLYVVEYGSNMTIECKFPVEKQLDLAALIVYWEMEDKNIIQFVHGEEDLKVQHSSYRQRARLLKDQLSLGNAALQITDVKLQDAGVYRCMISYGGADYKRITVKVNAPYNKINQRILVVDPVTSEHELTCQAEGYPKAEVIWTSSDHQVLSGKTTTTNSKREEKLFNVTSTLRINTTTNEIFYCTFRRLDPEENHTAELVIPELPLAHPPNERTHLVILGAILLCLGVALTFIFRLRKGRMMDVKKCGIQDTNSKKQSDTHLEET

EC50 [1] | EC50 [2] | EC50 [5] | Binder | further results
5.22 nM | 2.89 nM |  | R1123: TIGIT_VH_IL21R/TIGIT_VL_IL21/PD-L1-Fab (bispecific antibody) chain 1: not shown chain 2: not shown heavy: EVQLQESGPGLVKPSETLSLTCAVYGDSITSGYWNWIRKPPGKGLEYMGYISYTGSTYQNPSLKSRITFSRDTSKNQYYLKLSSVTAADTATYYCARSRAWIRTYFDYWGQGTLVTVSSASTKGPSVFPLAPSSKSTSGGTAALGCLVKDYFPEPVTVSWNSGALTSGVHTFPAVLQSSGLYSLSSVVTVPSSSLGTQTYICNVNHKPSNTKVDKRVEPKSCDKTHTCPPCPAPELLGGPSVFLFPPKPKDTLMISRTPEVTCVVVDVSHEDPEVKFNWYVDGVEVHNAKTKPREEQYNSTYRVVSVLTVLHQDWLNGKEYKCKVSNKALPAPIEKTISKAKGQPREPQVYTLPPSREEMTKNQVSLWCLVKGFYPSDIAVEWESNGQPENNYDTTPPVLDSDGSFFLYSDLTVDKSRWQQGNVFSCSVMHEALHNHYTQKSLSLSPGK light: EIVLTQSPDFQSVTPKEKVTITCSVSSSISSSNLHWYQQKPDQSPKLLIYGTSNLASGVPSRFSGSGSGTDFTLTINSLEAEDAATYYCQQWSSYPLTFGQGTKLEIKRTVAAPSVFIFPPSDEQLKSGTASVVCLLNNFYPREAKVQWKVDNALQSGNSQESVTEQDSKDSTYSLSSTLTLSKADYEKHKVYACEVTHQGLSSPVTKSFNRGEC | 
3.73 nM |  |  | R1072: TIGIT_VH_IL15RA/TIGIT_VL_IL15/PD-L1-Fab (bispecific antibody) chain 1: QVQLVQSGAEVKKPGSSVKVSCKASGYSFTSYWMNWVRQAPGQGLEWIGMIRPSDSETRLNQMFKDRVTITVDKSTSTAYMELSSLRSEDTAVYYCAGIHDYGHGAYWGQGTLVTVSSGGGGSGGGGSGGGGSGGGGSGITCPPPMSVEHADIWVKSYSLYSRERYICNSGFKRKAGTSSLTECVLNKATNVAHWTTPSLKCIRDPALVHQRPAPPSTVTTAGVTPQPESLSPSGKEPAASSPSSNNTAATTAAIVPGSQLMPSKSPSTGTTEISSHESSHGTPSQTTAKNWELTASASHQPPGVYPQGHSDTTEPKSSDKTHTCPPCPAPELLGGPSVFLFPPKPKDTLMISRTPEVTCVVVDVSHEDPEVKFNWYVDGVEVHNAKTKPREEQYNSTYRVVSVLTVLHQDWLNGKEYKCKVSNKALPAPIEKTISKAKGQPREPQVYTLPPSREEMTKNQVSLTCRVKGFYPSDIAVEWESNGQPENNYKTTPPVLKSDGSFFLASKLTVDKSRWQQGNVFSCSVMHEALHNHYTQKSLSLSPGK chain 2: DIQMTQSPSSLSASVGDRVTITCRASENIYSNLAWYQQKPGKSPKLLVYAASHLPDGVPSRFSGSGSGTDYSLTISSLQPEDFATYYCQHFWGTPRTFGQGTKLEIKGGGGSGGGGSGGGGSGGGGSGNWVNVISDLKKIEDLIQSMHIDATLYTESDVHPSCKVTAMKCFLLELQVISLESGDASIHNTVQDLIILANNSLSSNGNVTESGCKECEELEEKNIKEFLQSFVHIVQMFINTS heavy: QVQLQESGPGLVKPSETLSLTCAVYGDSITSGYWNWIRKPPGKGLEYIGYISYTGSTYQNPSLKSRITMSRDTSKNQYYLKLSSVTAADTAVYYCARSRAWIRTYFDYWGQGTLVTVSSASTKGPSVFPLAPSSKSTSGGTAALGCLVKDYFPEPVTVSWNSGALTSGVHTFPAVLQSSGLYSLSSVVTVPSSSLGTQTYICNVNHKPSNTKVDKRVEPKSCDKTHTCPPCPAPELLGGPSVFLFPPKPKDTLMISRTPEVTCVVVDVSHEDPEVKFNWYVDGVEVHNAKTKPREEQYNSTYRVVSVLTVLHQDWLNGKEYKCKVSNKALPAPIEKTISKAKGQPREPQVYTLPPSREEMTKNQVSLWCLVKGFYPSDIAVEWESNGQPENNYDTTPPVLDSDGSFFLYSDLTVDKSRWQQGNVFSCSVMHEALHNHYTQKSLSLSPGK light: DIQMTQSPSSLSASVGDRVTITCSVSSSISSSNLHWYQQKPGKAPKPWIYGTSNLASGVPSRFSGSGSGTDYTLTISSLQPEDFATYYCQQWSSYPLTFGQGTKLEIKRTVAAPSVFIFPPSDEQLKSGTASVVCLLNNFYPREAKVQWKVDNALQSGNSQESVTEQDSKDSTYSLSSTLTLSKADYEKHKVYACEVTHQGLSSPVTKSFNRGEC | EC50 [3]: 2 nM; EC50 [4]: 2.08 nM
 | 0.678 nM |  | R0774 (Tigit monoclonal antibody) (antibody, V domains shown) VH: QVQLVQSGAEVKKPGSSVKVSCKASGYSFTSYWMNWVRQAPGQGLEWIGMIRPSDSETRLNQMFKDRVTITVDKSTSTAYMELSSLRSEDTAVYYCAGIHDYGHGAYWGQGTLVTVSS VL: DIQMTQSPSSLSASVGDRVTITCRASENIYSNLAWYQQKPGKSPKLLVYAASHLPDGVPSRFSGSGSGTDYSLTISSLQPEDFATYYCQHFWGTPRTFGQGTKLEIK | 
 |  | 0.43 nM | R0952: TIGIT_VH_IL15/TIGIT_VL_IL15RA/PD-L1-Fab (bispecific antibody) chain 1: not shown chain 2: DIVMTQTPASVEVAVGGTVTIKCQASQSISSYLNWYQQKPGQPPKLLIYDALKLASGVPSRFSGSGSGTEYTLTISGVESADAATYYCQQEHSVGNVDNVFGGGTEVVVKGGGGSGGGGSGGGGSGGGGSGITCPPPMSVEHADIWVKSYSLYSRERYICNSGFKRKAGTSSLTECVLNKATNVAHWTTPSLKCIRDPALVHQRPAPPSTVTTAGVTPQPESLSPSGKEPAASSPSSNNTAATTAAIVPGSQLMPSKSPSTGTTEISSHESSHGTPSQTTAKNWELTASASHQPPGVYPQGHSDTT heavy: EVQLLESGGGLVQPGGSLRLSCAASGFTFSSYIMMWVRQAPGKGLEWVSSIYPSGGITFYADTVKGRFTISRDNSKNTLYLQMNSLRAEDTAVYYCARIKLGTVTTVDYWGQGTLVTVSSAKTTAPSVYPLAPVCGDTTGSSVTLGCLVKGYFPEPVTLTWNSGSLSSGVHTFPAVLQSDLYTLSSSVTVTSSTWPSQSITCNVAHPASSTKVDKKIEPRGPTIKPCPPCKCPAPNLLGGPSVFIFPPKIKDVLMISLSPIVTCVVVDVSEDDPDVQISWFVNNVEVHTAQTQTHREDYNSTLRVVSALPIQHQDWMSGKEFKCKVNNKDLPAPIERTISKPKGSVRAPQVYVLPPPEEEMTKKQVTLTCRVTDFMPEDIYVEWTNNGKTELNYKNTEPVLKSDGSYFMASKLRVEKKNWVERNSYSCSVVHEGLHNHHTTKSFSRTPGK light: QSALTQPASVSGSPGQSITISCTGTSSDVGGYNYVSWYQQHPGKAPKLMIYDVSNRPSGVSNRFSGSKSGNTASLTISGLQAEDEADYYCSSYTSSSTRVFGTGTKVTVLRTDAAPTVSIFPPSSEQLTSGGASVVCFLNNFYPKDINVKWKIDGSERQNGVLNSWTDQDSKDSTYSMSSTLTLTKDEYERHNSYTCEATHKTSTSPIVKSFNRNEC | 
 |  | 0.46 nM | R0951: TIGIT_VH_IL15RA/TIGIT_VL_IL15/PD-L1-Fab (bispecific antibody) chain 1: QVQLESEGGLFKPTDTLTLTCTVSGSSLSSSYMSWVRQAPGKGLEWIGIIGSNGNTYYANWAKGRFTISKTSTTVELKITSPTTEDTATYFCARGGYRTSGMDPWGPGTLVTVSSGGGGSGGGGSGGGGSGGGGSGITCPPPMSVEHADIWVKSYSLYSRERYICNSGFKRKAGTSSLTECVLNKATNVAHWTTPSLKCIRDPALVHQRPAPPSTVTTAGVTPQPESLSPSGKEPAASSPSSNNTAATTAAIVPGSQLMPSKSPSTGTTEISSHESSHGTPSQTTAKNWELTASASHQPPGVYPQGHSDTTEPRGPTIKPCPPCKCPAPNLLGGPSVFIFPPKIKDVLMISLSPIVTCVVVDVSEDDPDVQISWFVNNVEVHTAQTQTHREDYNSTLRVVSALPIQHQDWMSGKEFKCKVNNKDLPAPIERTISKPKGSVRAPQVYVLPPPEEEMTKKQVTLWCMVTDFMPEDIYVEWTNNGKTELNYDNTEPVLDSDGSYFMYSDLRVEKKNWVERNSYSCSVVHEGLHNHHTTKSFSRTPGK chain 2: not shown heavy: EVQLLESGGGLVQPGGSLRLSCAASGFTFSSYIMMWVRQAPGKGLEWVSSIYPSGGITFYADTVKGRFTISRDNSKNTLYLQMNSLRAEDTAVYYCARIKLGTVTTVDYWGQGTLVTVSSAKTTAPSVYPLAPVCGDTTGSSVTLGCLVKGYFPEPVTLTWNSGSLSSGVHTFPAVLQSDLYTLSSSVTVTSSTWPSQSITCNVAHPASSTKVDKKIEPRGPTIKPCPPCKCPAPNLLGGPSVFIFPPKIKDVLMISLSPIVTCVVVDVSEDDPDVQISWFVNNVEVHTAQTQTHREDYNSTLRVVSALPIQHQDWMSGKEFKCKVNNKDLPAPIERTISKPKGSVRAPQVYVLPPPEEEMTKKQVTLTCRVTDFMPEDIYVEWTNNGKTELNYKNTEPVLKSDGSYFMASKLRVEKKNWVERNSYSCSVVHEGLHNHHTTKSFSRTPGK light: QSALTQPASVSGSPGQSITISCTGTSSDVGGYNYVSWYQQHPGKAPKLMIYDVSNRPSGVSNRFSGSKSGNTASLTISGLQAEDEADYYCSSYTSSSTRVFGTGTKVTVLRTDAAPTVSIFPPSSEQLTSGGASVVCFLNNFYPKDINVKWKIDGSERQNGVLNSWTDQDSKDSTYSMSSTLTLTKDEYERHNSYTCEATHKTSTSPIVKSFNRNEC | 
